The target of this test is T1, wildtype αEβ7 ectodomain (human, UniProt P38570 19-1123; P26010 20-723, N-linked glycan at N303 (N321 in the legend of Figure 4)).
T1 construct: signal peptide in the construct; integrin alpha-E (CD103) ectodomain, M1-H1123 (limits count on the precursor); integrin beta-7 ectodomain, M1-H723 (limits count on the precursor); Wild-type αE construct 'used for integrin:e-cadherin complex'; The αEβ7 of the BLI assay is not specified; also called integrin αEβ7; source: ExpiCHO cells, α and β co-transfected, secreted, purified (HisTrap, SEC)
Briefly: BLI; Octet Red, 25°C; Fc-tagged E-cadherin ectodomain loaded on Protein A biosensors; αEβ7 500nM to 16.125nM in activating buffer with 0.1% BSA and 0.02% Tween-20; 1:1 model, global fit of three replicates. Particulars: both partners purified.

T1 sequence (P38570 19-1123, chain 1 of 2): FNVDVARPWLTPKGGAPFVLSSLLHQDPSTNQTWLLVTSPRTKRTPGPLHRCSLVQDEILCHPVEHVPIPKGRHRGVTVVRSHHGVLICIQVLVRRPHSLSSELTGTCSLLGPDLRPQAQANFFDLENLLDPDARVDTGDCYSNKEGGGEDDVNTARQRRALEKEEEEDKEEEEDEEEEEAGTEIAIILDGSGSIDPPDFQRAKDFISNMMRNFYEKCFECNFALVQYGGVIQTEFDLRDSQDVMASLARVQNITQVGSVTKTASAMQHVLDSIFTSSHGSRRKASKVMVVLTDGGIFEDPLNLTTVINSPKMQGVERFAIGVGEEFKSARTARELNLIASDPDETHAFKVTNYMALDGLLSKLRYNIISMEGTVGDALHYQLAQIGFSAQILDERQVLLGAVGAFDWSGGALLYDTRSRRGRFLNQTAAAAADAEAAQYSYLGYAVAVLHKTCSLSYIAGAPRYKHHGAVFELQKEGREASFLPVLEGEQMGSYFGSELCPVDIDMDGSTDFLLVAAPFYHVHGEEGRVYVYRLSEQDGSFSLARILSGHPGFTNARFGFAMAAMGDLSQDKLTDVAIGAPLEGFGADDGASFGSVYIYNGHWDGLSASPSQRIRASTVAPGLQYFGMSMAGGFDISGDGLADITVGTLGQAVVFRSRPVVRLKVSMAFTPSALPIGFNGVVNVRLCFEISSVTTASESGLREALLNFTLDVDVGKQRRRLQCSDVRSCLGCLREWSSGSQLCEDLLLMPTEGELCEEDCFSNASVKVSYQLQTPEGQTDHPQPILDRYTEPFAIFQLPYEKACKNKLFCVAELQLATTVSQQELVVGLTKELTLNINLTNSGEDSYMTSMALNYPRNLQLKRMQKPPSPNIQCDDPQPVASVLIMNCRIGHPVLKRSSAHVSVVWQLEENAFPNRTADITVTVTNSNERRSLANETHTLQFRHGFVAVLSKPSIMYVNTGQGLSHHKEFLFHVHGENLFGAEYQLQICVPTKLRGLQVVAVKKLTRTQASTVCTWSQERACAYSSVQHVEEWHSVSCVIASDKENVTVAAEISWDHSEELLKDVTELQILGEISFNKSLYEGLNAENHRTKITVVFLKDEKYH
T1 sequence (P26010 20-723, chain 2 of 2): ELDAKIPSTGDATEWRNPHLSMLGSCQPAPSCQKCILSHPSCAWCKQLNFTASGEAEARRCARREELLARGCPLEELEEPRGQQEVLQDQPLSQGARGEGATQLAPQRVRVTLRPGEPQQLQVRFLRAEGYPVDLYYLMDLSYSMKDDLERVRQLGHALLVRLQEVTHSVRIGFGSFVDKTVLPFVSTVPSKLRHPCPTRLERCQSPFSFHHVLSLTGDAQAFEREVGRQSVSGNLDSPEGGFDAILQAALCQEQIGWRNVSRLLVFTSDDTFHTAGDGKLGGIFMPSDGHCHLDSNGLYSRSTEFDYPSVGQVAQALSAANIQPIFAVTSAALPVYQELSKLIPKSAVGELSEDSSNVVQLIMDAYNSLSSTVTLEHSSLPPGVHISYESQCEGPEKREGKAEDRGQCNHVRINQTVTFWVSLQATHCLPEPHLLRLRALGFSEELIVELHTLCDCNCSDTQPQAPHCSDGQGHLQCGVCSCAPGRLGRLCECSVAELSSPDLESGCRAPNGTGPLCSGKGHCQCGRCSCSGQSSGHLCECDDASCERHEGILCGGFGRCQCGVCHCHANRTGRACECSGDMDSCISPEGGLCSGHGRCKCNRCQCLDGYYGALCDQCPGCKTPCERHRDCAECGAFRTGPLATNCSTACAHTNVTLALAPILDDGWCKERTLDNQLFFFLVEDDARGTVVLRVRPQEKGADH

B1: Fc-tagged E-cadherin ectodomain (Fc fusion, UniProt P12830 155-698, looked up)
chain: DWVIPPISCPENEKGPFPKNLVQIKSNKDKEGKVFYSITGQGADTPPVGVFIIERETGWLKVTEPLDRERIATYTLFSHAVSSNGNAVEDPMEILITVTDQNDNKPEFTQEVFKGSVMEGALPGTSVMEVTATDADDDVNTYNAAIAYTILSQDPELPDKNMFTINRNTGVISVVTTGLDRESFPTYTLVVQAADLQGEGLSTTATAVITVTDTNDNPPIFNPTTYKGQVPENEANVVITTLKVTDADAPNTPAWEAVYTILNDDGGQFVVTTNPVNNDGILKTAKGLDFEAKQQYILHVAVTNVVPFEVSLTTSTATVTVDVLDVNEAPIFVPPEKRVEVSEDFGVGQEITSYTAQEPDTFMEQKITYRIWRDTANWLEINPDTGAISTRAELDREDFEHVKNSTYTALIIATDNGSPVATGTGTLLLILSDVNDNAPIPEPRTIFFCERNPKPQVINIIDADLPPNTSPFTAELTHGASANWTIQYNDPTQESIILKPKMALEVGDYKINLKLMDNQNKDQVTTLEVSVCDCEGAAGVCRKA
notes: E-cadherin ectodomain, D155-A698 (limits count on the precursor); Held on Protein A biosensors by the Fc; source: ExpiCHO cells, secreted, purified (HiTrap Protein G, SEC); not shown: Fc (human), C-terminal, kept
B1 registered a Kd of 51 ± 7.9 nM.
